# In the Immune Epitope Database (IEDB):
# Target: HLA-B*07:02
# Test: IEDB peptide-MHC binding, purified MHC/competitive/fluorescence; ≥ and ≤ were set here for values at or beyond the usual limits of such assays
# Settings: source organism: H1N1 subtype
row,Sequence,IC50
1,LPFGKTTIM,881 nM
2,LPFEKTTIM,1190 nM
3,LPFDRPTIM,7910 nM
4,LPFDKITIM,4810 nM

# Same assay, conditions: source organism: H1N1 subtype Influenza A/Oklahoma/7485/01
row,Sequence,IC50
1,LPFDKTTIM,192 nM

# Same assay, conditions: source organism: H3N2 subtype
row,Sequence,IC50
1,LPFERSTVM,≥ 149000 nM
2,LPFERATII,1180 nM
3,LPFDKPTIM,335 nM
4,LPFEKSIVM,494 nM
5,LPFDKQTIM,46500 nM
